Laboratory results from patent US20180355043A1.

What was measured:
Assay in all cases: MSD ECL; antigen coated; protocol of Example 3
[1] = biological target: DR4G103: Human HLA-DRA1*01:02/DRB1*15:01 ECD with hemagglutinin peptide HA_304-318 (human)
[2] = biological target: DR4G104: Human HLA-DRA1*01:02/DRB1*04:02 ECD with hemagglutinin peptide HA_304-318 (human)
[3] = biological target: DR4G119: Human HLA-DRA1*01:02/DRB1*10:01 ECD with hemagglutinin peptide HA_304-318 (human)

## Isotype control (antibody)
[1]
  ECL signal: 487 ECL
[2]
  ECL signal: 1130 ECL
[3]
  ECL signal: 517 ECL
